B1: human IL-17RC extracellular domain (receptor)
chain: LERLVGPQDATHCSPGLSCRLWDSDILCLPGDIVPAPGPVLAPTHLQTELVLRCQKETDCDLCLRVAVHLAVHGHWEEPEDEEKFGGAADSGVEEPRNASLQAQVVLSFQAYPTARCVLLEVQVPAALVQFGQSVGSVVYDCFEAALGSEVRIWSYTQPRYEKELNHTQQLPDCRGLEVWNSIPSCWALPWLNVSADGDNVHLVLNVSEEQHFGLSLYWNQVQGPPKPRWHKNLTGPQIITLNHTDLVPCLCIQVWPLEPDSVRTNICPFREDPRAHQNLWQAARLQLLTLQSWLLDAPCSLPAEAALCWRAPGGDPCQPLVPPLSWENVTVDKVLEFPLLKGHPNLCVQVNSSEKLQLQECLWADSLGPLKDDVLLLETRGPQDNRSLCALEPSGCTSLPSKASTRAARLGEYLLQDLQSGQCLQLWDDDLGALWACPMDKYIHKR
B2: human IL-17F homodimer (ligand)
chain: RKIPKVGHTFFQKPESCPPVPGGSMKLDIGIINENQRVSMSRNIESRSTSPWNYTVTWDPNRYPSEVVQAQCRNLGCINAQGKEDISMNSVPIQQETLVVRRKHQGCSVSFQLEKVLVTVGCTCVTPVIHHVQ

How the values were obtained:
[1] = target: human IL-17A/F heterodimer, Arg77 to alanine mutant (F-chain) (human, UniProt Q16552 24-155; Q96PD4 31-163, R77A); test: SPR
[2] = target: B1; test: SPR

Row | Binder | Kd [1] | Kd [2]
1 | B1 | 5.4 nM | –
2 | B2 | – | 3.5 nM
